The record followed here is publication PMC5318860.

For this assay, the target named is SAVSBPM18-L-ABD(KC) fusion (not stated | Lumbricus terrestris). Briefly: affinity chromatography; 1-ml columns with about 1 mg of SAVSBPM18-L-ABD(KC) on Sepharose 6B-CL or 1,025 μg of SAVSBPM18 on Affi-Gel 15; 1 mg of biotinylated BSA loaded, above the binding capacity; elution with 10 mM biotin; fractions on SDS-PAGE.

Turning to “chemically biotinylated bovine serum albumin (BSA) (from UniProt P02769 25-607) (natural protein)”, the amount bound per ml of matrix at saturation (μg per ml of matrix) came to 730.
